Experimental data: patent US20180305450A1 (AstraZeneca / MedImmune, published 2018)
Numbering of substitutions follows the chain as printed. In names and notes the source's numbering stands.

B1: Par0067 IgG (antibody, V domains shown)
VH: EVQLLESGGGLVQPGGSLRLSCAASGFTFSSYAMNWVRQAPGKGLEWVSTISYSGSLISYADSVKGRFTISRDNSKNTLYLQMNSLRAEDTAVYYCARINNDPMDVWGQGTLVTVSS
VL: SIELTQPPSVSVSPGQTASITCSGDNLGKKYVQWYQQKPGQSPVLVIYDDSNRPSGIPERFSGSNSGNTATLTISGTQAMDEADYYCQTWDGNPTTGETNVFGGGTKLTVL
notes: IgG1-TM (L234F, L235E, P331S), human lambda light chain; also called ZZ15D2-D02; parent Par0067 IgG
B2: PaB670045 IgG (antibody, V domains shown)
VH: B1 VH with N100H, N101H
VL: B1 VL
notes: IgG1-TM (L234F, L235E, P331S), human lambda light chain; also called ZZ1KX3-F01
B3: PaB670048 IgG (antibody, V domains shown)
VH: B1 VH with N100H, N101H, V106H
VL: B1 VL
notes: IgG1-TM (L234F, L235E, P331S), human lambda light chain; also called ZZ1KX4-E11
B4: PaB670084 IgG (antibody, V domains shown)
VH: B1 VH with Y53H, S56H, S59H, Y60H, V64H
VL: B1 VL
notes: IgG1-TM (L234F, L235E, P331S), human lambda light chain; also called ZZ1PXA-A05
B5: PaB670128 IgG (antibody, V domains shown)
VH: B1 VH with S54H, S56H, L57H, V64H, K65H, G66H, N100H, N101H
VL: B1 VL
notes: IgG1-TM (L234F, L235E, P331S), human lambda light chain; also called ZZ1RUE-A01
B6: PaB670141 IgG (antibody, V domains shown)
VH: B1 VH with N101H
VL: B1 VL with T96H
notes: IgG1-TM (L234F, L235E, P331S), human lambda light chain
B7: PaB670142 IgG (antibody, V domains shown)
VH: B1 VH with N100H, N101H
VL: B1 VL with T96H
notes: as for B6
B8: PaB670143 IgG (antibody, V domains shown)
VH: B1 VH with S54H, S56H, L57H, V64H, K65H, G66H
VL: B1 VL with T96H
notes: as for B6
B9: PaB670144 IgG (antibody, V domains shown)
VH: B1 VH with S54H, S56H, L57H, V64H, K65H, G66H, N101H
VL: B1 VL with T96H
notes: as for B6
B10: PaB670146 IgG (antibody, V domains shown)
VH: B1 VH with N101H
VL: B1 VL with Q88H, D91H, G92H, N93H, T96H, T99H
notes: as for B6
B11: PaB670159 IgG (antibody, V domains shown)
VH: B1 VH with S54H, S56H, L57H, V64H, K65H, G66H, N101H
VL: B1 VL with N93H, P94H, T95H, V101H
notes: as for B6
B12: PaB670163 IgG (antibody, V domains shown)
VH: B1 VH with S54H, S56H, L57H, V64H, K65H, G66H, N101H
VL: B1 VL with Q88H, N93H, P94H, V101H
notes: as for B6
B13: PaB670149 IgG (antibody, V domains shown)
VH: B1 VH with S54H, S56H, L57H, V64H, K65H, G66H, N101H
VL: B1 VL with Q88H, D91H, G92H, N93H, T96H, T99H
notes: as for B6

biological target: T1, recombinant biotinylated human PAR2 extracellular domain (residues 1-75), N-terminal AviTag, C-terminal Flag … (human, UniProt P55085 26-75, biotin on the AviTag (enzymatic biotinylation)); assay: HTRF competition with Dylight650-Par0067 IgG, pH 7.4, IgG
T1 construct: also called Bio-human-PAR2 ECD; human PAR2 ECD; not shown: N-terminal AviTag (Avidity LLC); C-terminal Flag and poly Histidine tags
Description: (§1) Parent Par0067 IgG (used as a reference/control in all assays) was pre-diluted to give a 2000 nM stock in each of the two different pH assay buffers (in order to give a top final assay IgG concentration of 500 nM). All test, or other reference/control IgG were tested from a top final assay concentration of ¼ of the neat undiluted sample (i.e. no pre-dilution step was performed). Duplicate 11 point 1:3 serial dilutions then were prepared on 384 well polypropylene Greiner plates in each of the two assay buffers (pH 7.4 & 6.0). 5 μl per well was transferred from the relevant pH IgG dilution plate to the corresponding assay plate (pH 7.4 and pH 6.0). 5 ul of the appropriate pH assay buffer was added to the total and non-specific wells.
(§2) For multipoint dose response curves % Specific Binding values were plotted versus test purified antibody concentration (scFv or IgG). IC₅₀ values were determined via a sigmoidal dose response inhibition variable slope curve fit (4 parameter logistic equation) using Graphpad Prism Software.

T1 sequence (P55085 26-75): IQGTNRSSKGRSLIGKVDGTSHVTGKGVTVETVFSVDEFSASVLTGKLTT

Binder | IC50 [nM]
B1 | 0.835
B2 | 2.9
B3 | 5.7
B4 | 10.3
B5 | 32.8
B6 | 2.4
B7 | 4.8
B8 | 3.4
B9 | 29
B10 | 91.9
B11 | 161
B12 | 145
B13 | 505

biological target: T1, recombinant biotinylated human PAR2 …; assay: HTRF competition with Dylight650-Par0067 IgG, pH 6.0, IgG
Description: as §1, §2

Binder | IC50 [nM]
B1 | 0.79
B2 | 25.8
B3 | 48.2
B4 | 64.6
B6 | 13.9
B7 | 67.1
B8 | 40
B9 | 565
B10 | 784

biological target: T1, recombinant biotinylated human PAR2 …; assay: HTRF competition with Dylight650-Par0067 IgG, IgG
Description: as §1, §2

Binder | Fold IC50 (pH 6.0 v pH 7.4) [fold] | Fold IC50 pH 7.4 (Variant v Par0067) [fold]
B1 | 0.95 | 1
B2 | 8.9 | 3.5
B3 | 8.5 | 6.8
B4 | 6.3 | 12.3
B5 | – | 39.3
B6 | 5.9 | 2.8
B7 | 14 | 5.7
B8 | 11.8 | 4
B9 | 19.5 | 34.7
B10 | 8.5 | 110
B11 | – | 193
B12 | – | 174
B13 | – | 605
